9 variants from paper PMC8766471, “Mutations affecting the N-terminal domains of SHANK3 point to different pathomechanisms in neurodevelopmental disorders” (Scientific Reports, 2022) can be followed below.

B1: Shank3 N-terminus (SPN + Ank domains, residues 1-339), WT, mRFP-tagged [rat] / δ-catenin, GFP-tagged [mouse] (parent complex)
chain 1: MDGPGASAVVVRVGIPDLQQTKCLRLDPTAPVWAAKQRVLCALNHSLQDALNYGLFQPPSRGRAGKFLDEERLLQDYPPNLDTPLPYLEFRYKRRVYAQNLIDDKQFAKLHTKANLKKFMDYVQLHSTDKVARLLDKGLDPNFHDPDSGECPLSLAAQLDNATDLLKVLRNGGAHLDFRTRDGLTAVHCATRQRNAGALTTLLDLGASPDYKDSRGLTPLYHSALGGGDALCCELLLHDHAQLGTTDENGWQEIHQACRFGHVQHLEHLLFYGANMGAQNASGNTALHICALYNQESCARVLLFRGANKDVRNYNSQTAFQVAIIAGNFELAEVIKTHK
chain 2: MFARKQSGAAPFGAMPVPDQPPSASEKNSSLSPGLNTSNGDGSETETTSAILASVKEQELQFERLTRELEAERQIVASQLERCKLGSETGSMSSISSAGEQFHWQTQDGQKDIEDELTTGLELVDSCIRSLQESGILDPQDYSTSERPSLLSQSALQLNSKPEGSFQYPASYHSNQTLALGDTAPSQLPARSTQARAAGQSFSQGTTGRAGHLAGSEPAPPPPPPREPFAPSLGSAFHLPDAPPAAAALYYSSSTLPAPPRGGSPLTTTQGGSPTKLQRGGSAPEGAAYAAPRGSSPKQSPSRLAKSYSTSSPINIVVSSAGLSPIRVTSPPTVQSTISSSPIHQLSSTIGTYATLSPTKRLVHASEQYSKHSQELYATATLQRPGSLAAGSRASYSSQHGHLAPELRALQSPEHHIDPIYEDRVYQKPPMRSLSQSQGDPLPPAHTGTFRTSTAPSSPGVDSVPLQRTGSQHGPQNAAAATFQRASYAAGPASNYADPYRQLQYCASVDSPYSKSGPALPPEGTLARSPSIDSIQKDPREFGWRDPELPEVIQMLQHQFPSVQSNAAAYLQHLCFGDNKIKAEIRRQGGIQLLVDLLDHRMTEVHRSACGALRNLVYGKANDDNKIALKNCGGIPALVRLLRKTTDLEIRELVTGVLWNLSSCDALKMPIIQDALAVLTNAVIIPHSGWENSPLQDDRKIQLHSSQVLRNATGCLRNVSSAGEEARRRMRECDGLTDALLYVIQSALGSSEIDSKTVENCVCILRNLSYRLAAETSQGQHMGTDELDGLLCGETNGKDTESSGCWGKKKKKKKSQDQWDGVGPLPDCAEPPKGIQMLWHPSIVKPYLTLLSECSNPDTLEGAAGALQNLAAGSWKGWAEDVAGMAYALRSLPEGAPCLPQWSVYIRAAVRKEKGLPILVELLRIDNDRVVCAVATALRNMALDVRNKELIGKYAMRDLVHRLPGGNNSNNSGSKAMSDDTVTAVCCTLHEVITKNMENAKALRDAGGIEKLVGISKSKGDKHSPKVVKAASQVLNSMWQYRDLRSLYKKDGWSQYHFVASSSTIERDRQRPYSSSRTPSISPVRVSPNNRSASAPASPREMISLKERKTDYESAGNNATYHGTKGEHTSRKDTMTAQNTGVSTLYRNSYGAPAEDIKQNQVSTQPVPQEPSRKDYETYQPFPNSTRNYDESFFEDQVHHRPPASEYTMHLGLKSTGNYVDFYSAARPYSELNYETSHYPASPDSWV

The variants in the assay derive from B1. The experiment in a line: co-immunoprecipitation (mRFP-trap) with Western blot quantification; coexpressed in 293 T cells; three independent experiments; read off a plot. On the technique in general: A western blot detects proteins with antibodies after separation by electrophoresis.
Turning to chain 1 MDGPGASAVVVRVGIPDLQQTKCLRLDPTAPVWAAKQRVLCALNHSLQDALNYGLFQPPSRGRAGKFLDEERLLQDYPPNLDTPLPYLEFRYKRRVYAQNLIDDKQFAKLHTKANLKKFMDYVQLHSTDKVARLLDKGLDPNFHDPDSGECPLSLAAQLDNATDLLKVLRNGGAHLDFRTRDGLTAVHCATRQRNAGALTTLLDLGASPDYKDSRGLTPLYHSALGGGDALCCELLLHDHAQLGTTDENGWQEIHHACRFGHVQHLEHLLFYGANMGAQNASGNTALHICALYNQESCARVLLFRGANKDVRNYNSQTAFQVAIIAGNFELAEVIKTHK [chain 1 Q256H], the response is about 0.05.
The value for chain 1 MDGPGASAVVVRVGIPDLQQTKCLRLDPTAPVWAAKQRVLCALNHSLQDALNYGLFQPPSRGRAGKFLDEERLLQDYPPNLDTPLPYLEFRYKRRVYAQNLIDDKQFAKLHTKANLKKFMDYVQLHSTDKVARLLDKGLDPNFHDPDSGECPLSLAAQLDNATDLLKVLRNGGAHLDFRTRDGLTAVHCATRQRNAGALTTLLDLGASPDYKDSRGLTPLYHSALGGGDALCCELLLHDHAQLGTTDENGWQEIHQACRFGHVQHLEHLLFCGANMGAQNASGNTALHICALYNQESCARVLLFRGANKDVRNYNSQTAFQVAIIAGNFELAEVIKTHK [chain 1 Y272C] was about 0.068; that for chain 1 MDGPGASAVVVRVGIPDLQQTKCLRLDPTAPVWAAKQRVLCALNHSLQDALNYGLFQPPSRGRAGKFLDEERLLQDYPPNLDTPLPYLEFRYKRRVYAQNLIDDKPFAKLHTKANLKKFMDYVQLHSTDKVARLLDKGLDPNFHDPDSGECPLSLAAQLDNATDLLKVLRNGGAHLDFRTRDGLTAVHCATRQRNAGALTTLLDLGASPDYKDSRGLTPLYHSALGGGDALCCELLLHDHAQLGTTDENGWQEIHQACRFGHVQHLEHLLFYGANMGAQNASGNTALHICALYNQESCARVLLFRGANKDVRNYNSQTAFQVAIIAGNFELAEVIKTHK [chain 1 Q106P] was about 0.07.
The value for chain 1 MDGPGASAVVVRVGIPDLQQTKCLRLDPTAPVWAAKQRVLCALNHSLQDALNYGLFQPPSRGRAGKFLDEERLLQDYPPNLDTPLPYLEFRYKRRVYAQNLIDDKQFAKLHTKANLKKFMDYVQLHSTDKVARLLDKGLDPNFHDPDSGECPLSLAAQLDNATDLLKVLRNGGAHLDFRTRDGLTAVHCATRQRNAGALTTLLDLGASPDYKDSRGLTPLYHSALGGGDALCCELLLHDHAQLGTTDENGWQEIHQACRFGHVQHLEHLLFYGANMGAQNASGNTALHICALYNQESCARVLLFRGANKDVRNYNSRTAFQVAIIAGNFELAEVIKTHK [chain 1 Q317R] was about 0.14; that for chain 1 MDGPGASAVVVRVGIPDLQQTKCLRLDPTAPVWAAKQRVLCALNHSLQDALNYGLFQPPSRGRAGKFLDEERLLQDYPPNLDTPLPYLEFRYKRRVYAQNLIDDKQFAKLHTKANLKKFMDYVQLHSTDKVARLLDKGLDPNFHDPDSGECPLSLAAQLDNATDLLKVLRNGGAHLDFRTRDGLTAVHCATRQRNAGALTTLLDLGASPDYKDSRGLTPLYHSALGGGDALCCELLLHDHAQLGTTDENGWQEIHQACRFGHVQHLEHLMFYGANMGAQNASGNTALHICALYNQESCARVLLFRGANKDVRNYNSQTAFQVAIIAGNFELAEVIKTHK [chain 1 L270M] was about 0.066.
Under chain 1 MDGPGASAVVVRVGIPDLQQTKCLRLDPTAPVWAAKQRVLCALNHSLQDALNYGLFQPPSRGRAGKFLDEERLLQDYPPNLDTPLPYLEFRYKRRVYAQNLIDDKQFAKLHTKANLKKFMDYVQLHSTDKVARLLDKGLDPNFHDPDSGECPLSLAAQLDNATDLLKVLRNGGAHLDFRTRDGLTAVHCATRQRNAGALTTLLDLGASPDYKDSRGLTPLYHSALGGGDALCCELLLHDHAQLGTTDENCWQEIHQACRFGHVQHLEHLLFYGANMGAQNASGNTALHICALYNQESCARVLLFRGANKDVRNYNSQTAFQVAIIAGNFELAEVIKTHK [chain 1 G250C] stands about 0.05; under chain 1 MDGPGASAVVVRVGIPDLQQTKCLRLDPTAPVWAAKQRVLCALNHSLQDALNYGLFQPPSRGRAGKFLGEERLLQDYPPNLDTPLPYLEFRYKRRVYAQNLIDDKQFAKLHTKANLKKFMDYVQLHSTDKVARLLDKGLDPNFHDPDSGECPLSLAAQLDNATDLLKVLRNGGAHLDFRTRDGLTAVHCATRQRNAGALTTLLDLGASPDYKDSRGLTPLYHSALGGGDALCCELLLHDHAQLGTTDENGWQEIHQACRFGHVQHLEHLLFYGANMGAQNASGNTALHICALYNQESCARVLLFRGANKDVRNYNSQTAFQVAIIAGNFELAEVIKTHK [chain 1 D69G], about 0.13.
Consider chain 1 MDGPGASAVVVRVGIPDLQQTKCLRLDPTAPVWAAKQRVLCALNHSLQDALNYGLFQPPSRGRAGKFLDEERLLQDYPPNLDTPLPYLEFRYKRRVYAQNLIDDKQFAKLHTKANLKKFMDYVQLHSTDKVARLLDKGLDANFHDPDSGECPLSLAAQLDNATDLLKVLRNGGAHLDFRTRDGLTAVHCATRQRNAGALTTLLDLGASPDYKDSRGLTPLYHSALGGGDALCCELLLHDHAQLGTTDENGWQEIHQACRFGHVQHLEHLLFYGANMGAQNASGNTALHICALYNQESCARVLLFRGANKDVRNYNSQTAFQVAIIAGNFELAEVIKTHK [chain 1 P141A], for which the response is about 0.022.
Under chain 1 MDGPGASAVVVRVGIPDLQQTKCLRLDPTAPVWAAKQRVLCALNHSLQDALNYGLFQPPSRGRAGKFLDEERLLQDYPPNLDTPLPYLEFRYKRRVYAQNLIDDKQFAKLHTKANLKKFMDYVQLHSTDKVARLLDKGLDPNFHDPDSGECPLSLAAQLDNATDLLKVLRNGGAHLDFRTRDGLTAVHCATRQRNAGALTTLLDLGASPDYKDSRGLTPLYHSALGGGDALCCELLLHDHAQLGTTDENGWQEIHQACRFGHVQHLEHLLFYGANMGAQNASGNTALHICALYNQESCARVLLFRGANKDVRNYNSQTAFQVAIIAGNFELAEVIKSHK [chain 1 T337S] stands about 0.092.
